For 50 variants, screen value results are on record in paper doi:10.1101/2021.08.20.457142.

B1: MKK6 D-site peptide / p38-alpha (MAPK14) L195A, full length (parent complex)
chain 1: SQSKGKKRNPGLKIPKEAFEQP
chain 2: MSQERPTFYRQELNKTVWEVPERYQNLSPVGSGAYGSVCAAFDTKTGHRVAVKKLSRPFQSIIHAKRTYRELRLLKHMKHENVIGLLDVFTPARSLEEFNDVYLVTHLMGADLNNIVKCQKLTDDHVQFLIYQILRGLKYIHSADIIHRDLKPSNLAVNEDCELKILDFGLARHTDDEMTGYVATRWYRAPEIMANWMHYNQTVDIWSVGCIMAELLTGRTLFPGTDHIDQLKLILRLVGTPGAELLKKISSESARNYIQSLAQMPKMNFANVFIGANPLAVDLLEKMLVLDSDKRITAAQALAHAYFAQYHDPDDEPVAEPYDQSFESRDFLIDEWKSLTYDEVISFVPPPLDQEEMES

In this experiment the parent is B1.
Take chain 1 SQSKHKKRNPGLKIPKEAFEQP [chain 1 G5H]: the screen value was 1.94 Z-score of the enrichment rate within one screen of 711 sequences.

As to chain 1 SQSKGAKRNPALKIPKEAFEQP [chain 1 K6A, chain 1 G11A], the screen value is 0.561 Z-score of the enrichment rate within one screen of 711 sequences.

As to chain 1 SQSKGKARNPGAKIPKEAFEQP [chain 1 K7A, chain 1 L12A], the screen value is -1.2 Z-score of the enrichment rate within one screen of 711 sequences.

With chain 1 SQSKGKKRNPGLKIPPEAFEQP [chain 1 K16P], the screen value is 0.798 Z-score of the enrichment rate within one screen of 711 sequences.

Turning to chain 1 SQSKGKKRNPGLKIPLEAFEQP [chain 1 K16L], the screen value was 1.28 Z-score of the enrichment rate within one screen of 711 sequences.

As for chain 1 SQAKGKKRNPALKIPKEAFEQP [chain 1 S3A, chain 1 G11A], the screen value was 0.988 Z-score of the enrichment rate within one screen of 711 sequences.

For the variant chain 1 SQSKGKLRNPGLKIPKEAFEQP [chain 1 K7L], the screen value was 1.83 Z-score of the enrichment rate within one screen of 711 sequences.

For the variant chain 1 SQSAGKARNPGLKIPKEAFEQP [chain 1 K4A, chain 1 K7A], the screen value was -0.395 Z-score of the enrichment rate within one screen of 711 sequences.

Turning to chain 1 SQSKGKKRNPGLAIAKEAFEQP [chain 1 K13A, chain 1 P15A], the screen value is -0.309 Z-score of the enrichment rate within one screen of 711 sequences.

In the case of chain 1 SQSKGKKRNPGLWIPKEAFEQP [chain 1 K13W], the screen value is 0.592 Z-score of the enrichment rate within one screen of 711 sequences.

chain 1 SQSKGKKRNPGLPIPKEAFEQP [chain 1 K13P]: the screen value is -0.836 Z-score of the enrichment rate within one screen of 711 sequences.

As to chain 1 SQSKGKKRNPGLRIPKEAFEQP [chain 1 K13R], the screen value is 1.63 Z-score of the enrichment rate within one screen of 711 sequences.

Turning to chain 1 SQSKGKKRNPGLTIPKEAFEQP [chain 1 K13T], the screen value was 0.352 Z-score of the enrichment rate within one screen of 711 sequences.

For the variant chain 1 SQSKGKKRNPGAKAPKEAFEQP [chain 1 L12A, chain 1 I14A], the screen value is -1.27 Z-score of the enrichment rate within one screen of 711 sequences.

With chain 1 SQSKGKKRNWGLKIPKEAFEQP [chain 1 P10W], the screen value was 0.911 Z-score of the enrichment rate within one screen of 711 sequences.

Consider chain 1 SQSKGKKRNFGLKIPKEAFEQP [chain 1 P10F], for which the screen value is 0.865 Z-score of the enrichment rate within one screen of 711 sequences.

Take chain 1 SQSKGKKRNTGLKIPKEAFEQP [chain 1 P10T]: the screen value was 0.699 Z-score of the enrichment rate within one screen of 711 sequences.

Take chain 1 SQSKGKKRNAGLKIPKEAFEQP [chain 1 P10A]: the screen value is 0.621 Z-score of the enrichment rate within one screen of 711 sequences.

In the case of chain 1 SQSKGKKRNVGLKIPKEAFEQP [chain 1 P10V], the screen value is 0.742 Z-score of the enrichment rate within one screen of 711 sequences.

Take chain 1 SQSKGKKINPGLKIPKEAFEQP [chain 1 R8I]: the screen value is 0.378 Z-score of the enrichment rate within one screen of 711 sequences.

Take chain 1 SQSWGKKRNPGLKIPKEAFEQP [chain 1 K4W]: the screen value was 1.28 Z-score of the enrichment rate within one screen of 711 sequences.

On to chain 1 SQSNGKKRNPGLKIPKEAFEQP [chain 1 K4N], for which the screen value was 0.364 Z-score of the enrichment rate within one screen of 711 sequences.

For the variant chain 1 SQSEGKKRNPGLKIPKEAFEQP [chain 1 K4E], the screen value is 0.242 Z-score of the enrichment rate within one screen of 711 sequences.

chain 1 SQSAGKKRNPGLKAPKEAFEQP [chain 1 K4A, chain 1 I14A]: the screen value was -1.18 Z-score of the enrichment rate within one screen of 711 sequences.

Regarding chain 1 SQKKGKKRNPGLKIPKEAFEQP [chain 1 S3K], the screen value was 2.42 Z-score of the enrichment rate within one screen of 711 sequences.

Take chain 1 SQWKGKKRNPGLKIPKEAFEQP [chain 1 S3W]: the screen value is 2.4 Z-score of the enrichment rate within one screen of 711 sequences.

Regarding chain 1 SQLKGKKRNPGLKIPKEAFEQP [chain 1 S3L], the screen value was 1.66 Z-score of the enrichment rate within one screen of 711 sequences.

Take chain 1 SQIKGKKRNPGLKIPKEAFEQP [chain 1 S3I]: the screen value is 2 Z-score of the enrichment rate within one screen of 711 sequences.

As for chain 1 SQEKGKKRNPGLKIPKEAFEQP [chain 1 S3E], the screen value is 0.822 Z-score of the enrichment rate within one screen of 711 sequences.

Regarding chain 1 SQFKGKKRNPGLKIPKEAFEQP [chain 1 S3F], the screen value was 1.62 Z-score of the enrichment rate within one screen of 711 sequences.

With chain 1 SQSKGKKREPGLKIPKEAFEQP [chain 1 N9E], the screen value is -0.389 Z-score of the enrichment rate within one screen of 711 sequences.

As for chain 1 SQSKGKKRAPGLKIPKEAFEQP [chain 1 N9A], the screen value was 1.56 Z-score of the enrichment rate within one screen of 711 sequences.

For the variant chain 1 SQSKGKKRCPGLKIPKEAFEQP [chain 1 N9C], the screen value is 1.38 Z-score of the enrichment rate within one screen of 711 sequences.

For the variant chain 1 SQSKGAKRNPGLKIPAEAFEQP [chain 1 K6A, chain 1 K16A], the screen value is 0.354 Z-score of the enrichment rate within one screen of 711 sequences.

In the case of chain 1 SQSKGKKRNPKLKIPKEAFEQP [chain 1 G11K], the screen value is 2.23 Z-score of the enrichment rate within one screen of 711 sequences.

As for chain 1 SQSKGKKRNAGLKIAKEAFEQP [chain 1 P10A, chain 1 P15A], the screen value was 0.87 Z-score of the enrichment rate within one screen of 711 sequences.

Turning to chain 1 SQSKGKKRNPALKIAKEAFEQP [chain 1 G11A, chain 1 P15A], the screen value was 1.79 Z-score of the enrichment rate within one screen of 711 sequences.

Consider chain 1 SQSKGKKRAPGLKAPKEAFEQP [chain 1 N9A, chain 1 I14A], for which the screen value is -0.573 Z-score of the enrichment rate within one screen of 711 sequences.

Regarding chain 1 SQAAGKKRNPGLKIPKEAFEQP [chain 1 S3A, chain 1 K4A], the screen value was 0.582 Z-score of the enrichment rate within one screen of 711 sequences.

Take chain 1 SQSKGKKRNPGLKHPKEAFEQP [chain 1 I14H]: the screen value was -0.748 Z-score of the enrichment rate within one screen of 711 sequences.

Turning to chain 1 SQSKGKKRNPGLKDPKEAFEQP [chain 1 I14D], the screen value was -0.97 Z-score of the enrichment rate within one screen of 711 sequences.

As for chain 1 SQSKGKKRNPGLKKPKEAFEQP [chain 1 I14K], the screen value was -0.966 Z-score of the enrichment rate within one screen of 711 sequences.

With chain 1 SQSKAKKRAPGLKIPKEAFEQP [chain 1 G5A, chain 1 N9A], the screen value is 1.1 Z-score of the enrichment rate within one screen of 711 sequences.

For chain 1 SQSKGKKRNPGLKICKEAFEQP [chain 1 P15C], the screen value is 4.38 Z-score of the enrichment rate within one screen of 711 sequences.

On to chain 1 SQSKGKARNPGLKIPAEAFEQP [chain 1 K7A, chain 1 K16A], for which the screen value was 0.0296 Z-score of the enrichment rate within one screen of 711 sequences.

For the variant chain 1 SQAKGKKRAPGLKIPKEAFEQP [chain 1 S3A, chain 1 N9A], the screen value is 1.3 Z-score of the enrichment rate within one screen of 711 sequences.

As for chain 1 SQSKGKARNPALKIPKEAFEQP [chain 1 K7A, chain 1 G11A], the screen value was 0.113 Z-score of the enrichment rate within one screen of 711 sequences.

Turning to chain 1 SQSKGKKRNPGRKIPKEAFEQP [chain 1 L12R], the screen value was -1.21 Z-score of the enrichment rate within one screen of 711 sequences.

On to chain 1 SQSKGKKRNPGEKIPKEAFEQP [chain 1 L12E], for which the screen value was -1.29 Z-score of the enrichment rate within one screen of 711 sequences.

Consider chain 1 SQSKAKKRNPGLKAPKEAFEQP [chain 1 G5A, chain 1 I14A], for which the screen value was -1.03 Z-score of the enrichment rate within one screen of 711 sequences.
